Measured values: article PMC12691639

Target: K62-HA (K62 killer toxin with a C-terminal hemagglutinin tag), expressed by S. cerevisiae (Saccharomyces paradoxus)

In the case of “K62-HA (K62 killer toxin with a C-terminal hemagglutinin tag), expressed by S. cerevisiae (natural protein)”, the stoichiometry N is reported as 2.
